Assay results from US20140271651A1 (AbbVie / Abbott, published 2014).

T1: E. coli expressed human GP73 (amino acids 63 to 400) with C-terminal 6xHis tag (human, UniProt Q8NBJ4 64-401)
T1 construct: No human Fc, not glycosylated; also called GP73 produced in E. coli; E. coli GP73
T1 sequence: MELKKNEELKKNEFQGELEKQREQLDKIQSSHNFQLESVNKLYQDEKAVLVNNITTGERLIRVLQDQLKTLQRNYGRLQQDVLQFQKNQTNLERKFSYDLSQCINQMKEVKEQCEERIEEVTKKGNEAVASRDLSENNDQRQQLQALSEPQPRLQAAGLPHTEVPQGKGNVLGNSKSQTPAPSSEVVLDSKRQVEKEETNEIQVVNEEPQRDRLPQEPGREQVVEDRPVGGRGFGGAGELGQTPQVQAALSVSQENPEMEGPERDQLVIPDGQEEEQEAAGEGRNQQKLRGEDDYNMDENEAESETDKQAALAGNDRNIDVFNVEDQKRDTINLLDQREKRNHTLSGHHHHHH

T2: GP73-hFc (human GP73 amino acids 63 to 400 fused at the C-terminus to human IgG1 Fc) (human)
T2 construct: Expressed in HEK293F, CHO or HepG2 cells; the host is named under assay; also called HEK expressed GP73-hFc; CHO expressed GP73-hFc
T2 chain: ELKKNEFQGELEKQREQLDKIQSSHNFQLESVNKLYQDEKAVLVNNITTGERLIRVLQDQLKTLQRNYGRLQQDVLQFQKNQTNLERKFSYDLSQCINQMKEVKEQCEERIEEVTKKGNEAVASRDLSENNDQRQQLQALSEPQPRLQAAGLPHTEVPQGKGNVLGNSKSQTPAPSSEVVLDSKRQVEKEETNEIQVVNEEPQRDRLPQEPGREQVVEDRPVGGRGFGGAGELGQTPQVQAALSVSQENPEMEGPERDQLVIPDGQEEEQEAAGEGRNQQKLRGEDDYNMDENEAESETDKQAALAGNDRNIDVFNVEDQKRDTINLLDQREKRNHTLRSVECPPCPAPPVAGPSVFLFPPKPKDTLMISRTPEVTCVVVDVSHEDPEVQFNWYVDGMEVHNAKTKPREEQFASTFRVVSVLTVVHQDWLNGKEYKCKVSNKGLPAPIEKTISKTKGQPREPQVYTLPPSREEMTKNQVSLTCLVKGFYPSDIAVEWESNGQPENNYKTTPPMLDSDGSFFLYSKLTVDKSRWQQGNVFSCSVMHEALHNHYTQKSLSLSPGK

B1: anti-GP73 monoclonal antibody 1B-4971 (antibody, V domains shown)
VH: QVQLQQSGPALVKPGASVKMSCKASGYTFTNYVIHWVKQKPGQGLERIGYIWPYNDGTKFNEKFKGKATLTSDKSSSTAYMELSSLTSEDSAVYYCSSQQLAYWGQGTTLTVSS
VL: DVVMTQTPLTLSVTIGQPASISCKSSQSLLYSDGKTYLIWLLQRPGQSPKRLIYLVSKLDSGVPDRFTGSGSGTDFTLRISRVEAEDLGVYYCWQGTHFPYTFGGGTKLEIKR
notes: Biotin labelled in some assays; also called mAb 1B-4971; 1B-4971-Bt
B2: anti-GP73 monoclonal antibody 1B-3440 (antibody, V domains shown)
VH: EVQLVETGGGLVQPKGSLKLSCAASGFTFNTNAMNWVRQAPGKGLEWVARIRTKRYNYTTFYADSVKDRFTISRDDSQSMLFLQMNNLKTEDTAMYYCVTGGTGTFDYWGQGTTLTVSS
VL: EIVLTQSPTTMPASPGEKVTFTCSASSGISSNYLHWYQLKPGFSPKLLIYRTSNLASGVPARFSGGGSGTSYSLTIGTMEAEDVATYYCQQGFSIPLTFGAGTKLELKR
notes: Biotin labelled in some assays; also called mAb 1B-3440; 1B-3440-Bt
B3: anti-GP73 monoclonal antibody 1B-4863 (antibody, V domains shown)
VH: QVQLKESGPGLVAPSQSLSITCTVSGFSLTSYGVHWVRQSPGKGLEWLGVIWTGGSTNYNSALMSRLSISKDNSESQVFLKVNSLQTDDTGMYYCARDPGTDYFDYWGQGTTLTVSS
VL: DIVMTQSHKFMSTSIGDRVSISCKASQDVSIDVSWYQQKPGQSPTLLIYSASYRYIGVPDRFTGSGSGTAFTFTISSVQAEDLAIYYCQQHFTTPLTFGAGTKLELKR
notes: Biotin labelled in some assays; also called mAb 1B-4863; 1B-4863-Bt

What was measured:
[1] = molecular target: T1, E. coli expressed human GP73 (amino …); test: Binds E. coli GP73 (summary table; EIA on coated E. coli GP73)
Experimental: The purified anti-GP73 mAbs were tested for EIA reactivity to human IgG, GP73 produced in E. coli, and GP73-hFc produced in HEK 293 cells. A mouse-human chimeric antibody, GP73 produced in E. coli, and GP73-hFc produced in HEK 293 cells were coated on micro titer plates at approximately 1000 ng/mL and allowed to incubate over night at 4-8° C. After the capture reagent was coated on the solid phase, it was removed and blocked using a BSA/PBS block solution. The wells were washed with distilled water. Purified anti-GP73 and negative control mAbs were added to the blocked plates in serial dilutions starting at 1000 ng/mL and allowed to incubate at room temperature for approximately 30 min. The wells were washed with distilled water. Goat anti-mouse IgG-HRP (Jackson Immunoresearch) was added to the wells at approximately 250 ng/mL and allowed to incubate for approximately 30 min at room temperature. The plates were washed with distilled water and OPD substrate was used as the chromagen to generate signal. Plates were read at 492 nm and the results were analyzed.

[2] = molecular target: T2, GP73-hFc (human GP73 amino acids 63 to …); test: sandwich EIA, rabbit anti-GP73 coated 1 ug/mL, GP73-hFc 200 ng/mL, supernatant 1:125, HRP goat anti-mouse IgG Fc
Experimental: Cell supernatant samples were analyzed for anti-GP73 antibodies by EIA. Sheep anti-mouse IgG Fc (Jackson Immunoresearch) was coated on 96 well micro-titer EIA plates at 1 μg/mL. After the capture reagent was coated on the solid phase, it was removed and the plates were blocked using a BSA/PBS block solution. The wells were washed with distilled water and cell supernatants were added to the blocked plates and allowed to incubate at room temperature for at least one hour. A mouse monoclonal antibody 14H4-23 (Drexel University) was used a positive control. The anti-mouse IgG Fc captured the anti-GP73 mouse antibody from the supernatant. Following the incubation, the supernatants were washed off using distilled water. An irrelevant mouse-human chimeric antibody was added to all wells and incubated at room temperature for 30 min to block any captured mouse antibodies that react with the human IgG Fc fusion protein linked to the GP73 antigen. The wells were washed with distilled water and GP73-hFc was added to the plates at 200 ng/mL and incubated for 30 min. Following this incubation, the antigen was washed from the plates using distilled water. Biotin labeled goat anti-GP73 was added to the plates at 200 ng/mL and incubated for 30 min at room temperature. The plates were washed and streptavidin-HRPO (Jackson Immunoresearch) (diluted to approximately 200 ng/mL) was added to the plates and allowed to incubate for 30 min. The plates were washed with distilled water and OPD substrate was used as the chromagen to generate signal. Plates were read at 492 nm and the results were analyzed.
The 24 well cultures were then evaluated by EIA for their ability to form a sandwich with the rabbit anti-GP73 used as a capture reagent coated directly on the solid phase. The same EIA protocol previously described was used, except rabbit anti-GP73 antibody was coated at 1 μg/mL, the GP73-hFc was tested at 200 ng/mL, and a HRP labeled goat anti-mouse IgG FC antibody was used as the conjugate reagent to generate signal.

[3] = molecular target: T1, E. coli expressed human GP73 (amino …); test: Western blot on E. coli expressed GP73 antigen
Experimental: The mammalian cell (HEK and CHO) expressed GP73-hFc or E. coli expressed GP73, as described above, were electrophoresed in a 4-20% SDS-PAGE gel. […] The nitrocellulose membrane was blocked with PBS buffer containing 5% non-fat dry milk and 0.05% Tween 20 for about 1 hr. The nitrocellulose membrane was incubated with an appropriate amount of anti-GP73 monoclonal antibody in 10 mL of 2.5% non-fat dry milk and 0.05% Tween 20 PBS buffer, pH 7.2. The nitrocellulose membranes were washed with 0.05% Tween 20/PBS, pH 7.2, incubated with goat anti-mouse IgG antibody conjugated with HRP for 1 hr at room temperature, and washed with 0.05% Tween 20/PBS buffer. Antibody bound to the GP73 protein was visualized by the addition of freshly prepared metal enhanced 3,3′-Diaminobenzidine in stable peroxide buffer (Pierce, Ill.).

Row | Binder | binding result [1] | GP73-hFc OD (A492) [2] | binding result [3]
1 | B1 | binds | 1.6 OD (A492) | –
2 | B2 | binds | 0.76 OD (A492) | –
3 | B3 | – | 1.41 OD (A492) | binds
